Values quoted from earlier work, collected in patent publication US20200085776A1, “Methods of Reducing C-Reactive Protein and/or Treating Cardiovascular Disease” (CARDAX, INC., priority 2018, published 2020).

Tests used:
IL-1β = target: T1, IL-1β (Homo sapiens, UniProt P01584); settings: cited from earlier work
T1 construct: host or cells: human trial patients (endogenous IL-1β)

cardiovascular events = settings: 15-20 mg/week vs. placebo; cited from earlier work
vascular events = settings: 20 mg/D; patients who achieved a reduction in CRP<2.0; cited from earlier work
[1] = subjects with a reduction of CRP<2.0 mg/L, regardless of dose

**Q.** With “canakinumab: monoclonal antibody that targets IL-1β (printed IL-113)” as the compound, how does the deaths from infection (IL-1β; active treatment groups, mostly tuberculosis) read?
**A.** more deaths from infection

**Q.** What about the “effect on CRP, IL-6 and lipids” value (IL-1β; patients with active treatment) of the same compound?
**A.** a reduction in CRP and IL-6, with no change in lipids

**Q.** What about the “reduction in cardiovascular death and all-cause mortality” value (IL-1β; [1]) of the same compound?
**A.** 31%

**Q.** What about the “reduction in the primary end point (composite of myocardial infarction, stroke, or cardiovascular death)” value (IL-1β; [1]) of the same compound?
**A.** 25%

**Q.** Which “cardiovascular events compared to placebo” value (cardiovascular events) does the source give for `CN(Cc1cnc2nc(N)nc(N)c2n1)c1ccc(C(=O)N[C@@H](CCC(=O)O)C(=O)O)cc1` [methotrexate] here?
**A.** did not result in fewer cardiovascular events

**Q.** What about the “effect on levels of IL-1β, IL-6, CRP” value (cardiovascular events) of the same compound?
**A.** did not reduce levels of IL-1β, IL-6, or CRP

**Q.** For `CC(C)c1nc(N(C)S(C)(=O)=O)nc(-c2ccc(F)cc2)c1/C=C/[C@@H](O)C[C@@H](O)CC(=O)O` [rosuvastatin], which “reduction in vascular events” value (vascular events) is on record?
**A.** 62%
